Source: paper PMC9006937, “Structure-Based Design and Antigenic Validation of Respiratory Syncytial Virus G Immunogens” (Journal of Virology, 2022)
Several values for one entry are separate records, joined by “and”; a condition that tells them apart may be missing. Equal entries are not always repeated.

Key:
Assay in all cases: BLI; Octet RED384; MAb (1 µg/mL) captured on anti-human IgG Fc (AHC) biosensors; RSV G^ecto proteins in solution, 40 nM 2-fold serially diluted to 0.63 nM (higher starting concentrations for CX4C); PBS pH 7.4, 0.05% Tween 20, 1% BSA; association 300 s, dissociation 600 s; global 1:1 fit; in duplicate
[1] = target: human anti-RSV G monoclonal antibody 2D10 (human)
[2] = target: human anti-RSV G monoclonal antibody 3D3 (human)
[3] = target: human anti-RSV G monoclonal antibody 3G12 (human)
[4] = target: T1, RSV G ectodomain wild-type protein (RSV strain A2, residues 64 to 298) (Human respiratory syncytial virus A, …, UniProt P03423); details: both partners purified
T1 construct: glycosylated, runs at about 90 kDa on SDS-PAGE; also called RSV G^ecto WT; wild-type RSV G

For “RSV G ectodomain S177Q mutant protein (residues 64 to 298) (from UniProt P03423 64-298) (domain or fragment)”, the Kd [1] was 0.605 nM and 0.485 nM, the koff [1] was 0.000225 s⁻¹ and 0.00015 s⁻¹ and the kon [1] was 371000 M⁻¹ s⁻¹ and 310000 M⁻¹ s⁻¹. The Kd [2] was 0.538 nM and 0.264 nM, the koff [2] was 0.000199 s⁻¹ and 0.000109 s⁻¹ and the kon [2] was 369000 M⁻¹ s⁻¹ and 414000 M⁻¹ s⁻¹. For the same molecule, the Kd [3] was 1.88 nM and 2.28 nM, the koff [3] was 0.000447 s⁻¹ and 0.000528 s⁻¹ and the kon [3] was 238000 M⁻¹ s⁻¹ and 232000 M⁻¹ s⁻¹.

For “RSV G ectodomain S177R mutant protein (residues 64 to 298) (from UniProt P03423 64-298) (domain or fragment)”, the Kd [1] was < 0.001 nM, the koff [1] was < 1e-07 s⁻¹ and the kon [1] was 318000 M⁻¹ s⁻¹ and 253000 M⁻¹ s⁻¹. For the same molecule, the Kd [2] was 0.422 nM and 0.57 nM, the koff [2] was 0.000104 s⁻¹ and 0.000151 s⁻¹ and the kon [2] was 247000 M⁻¹ s⁻¹ and 265000 M⁻¹ s⁻¹. The Kd [3] was 4.34 nM and 4.6 nM, the koff [3] was 0.000581 s⁻¹ and 0.000672 s⁻¹ and the kon [3] was 134000 M⁻¹ s⁻¹ and 146000 M⁻¹ s⁻¹.

B1: human anti-RSV G monoclonal antibody 2D10 (antibody, V domains shown)
VH: QVQLVQSGPEVKKPGASVRLSCKASGYVFTNYGVSWVRQAPGQGLEWMGWSSPYNGNTYYAQKLKARVTMTTDTSTNTAYMELRSLRSDDTAVYYCGRDMLGVVQAVAGPFDSWGQGTLVTVSS
VL: DTPMTQSPSSVSASVGDRVTISCRASQGISNSLAWYQQKLGKAPQLLIYAASSLQSGVPSRFSGSGSGTDFTLTISSLQPEDFATYYCQQTNTFPFTFGPGTKVEVR
notes: heavy-chain variable region of human MAb 2D10; human IgG1 heavy-chain constant region as in the pCMVR VRC01 heavy-chain vector (AIDS Reagent Program); light-chain variable region of human MAb 2D10; light-chain constant region of the pCMVR VRC01 light-chain vector; IgG1; variable regions of 2D10 put in place of those of antibody VRC01 in the pCMVR VRC01 vectors; also called MAb 2D10
In the case of B1, the Kd [4] is reported as < 0.001 nM, the koff [4] is reported as < 1e-07 s⁻¹ and the kon [4] is reported as 370000 M⁻¹ s⁻¹ and 383000 M⁻¹ s⁻¹.

B2: human anti-RSV G monoclonal antibody 3G12 (antibody, V domains shown)
VH: QLQLQESGPGLVKPSETLSLTCTVSGGSISSSNYYWGWIRQPPGKGLEWIASIHDSGSIYYNPSLRSRVTISVDTSKNQFSLKLSSVTAADTAVYYCARHLVWFGELRNNWFDPWGQGTLVTVAS
VL: EIVMTQSPATLSVSPGERATLSCRASQSVNSNLAWYQHKPGQAPRLLIYGASTRATGIPARFSGSGSGTDFTLTISSLQSEDFAVYYCQQYNNWPLFGPGTKVDLK
notes: heavy chain of human MAb 3G12; light chain of human MAb 3G12; Whole IgG, captured by anti-human IgG Fc biosensors; also called MAb 3G12
With B2 the Kd [4] was 0.26 nM and 0.262 nM, the koff [4] was 6.55e-05 s⁻¹ and 5.19e-05 s⁻¹ and the kon [4] was 252000 M⁻¹ s⁻¹ and 198000 M⁻¹ s⁻¹.

B3: human anti-RSV G monoclonal antibody 3D3 (antibody, V domains shown)
VH: EEQLVESGGGLVQPGRSLRLSCVGSGLRFEEHAMHWVRQAPGRGLEWVSGISWNSGSVGYADSVKGRFTTSRDNAKDILFLEMNTLRSEDTALYFCAIMVATTKNDFHYYKDVWGKGTTVTVSS
VL: QIVLTQSPATLSLSPGERATLSCRASQSVSNHLAWYQQKPGQAPRLLIYETSNRATGIPPRFSGSGSGTDFTLTISSLEPEDFAVYYCQQRNNWYTFGQGTKLEIK
notes: heavy chain of human MAb 3D3; light chain of human MAb 3D3; Whole IgG, captured by anti-human IgG Fc biosensors; also called MAb 3D3
With B3 the Kd [4] was < 0.001 nM, the koff [4] was < 1e-07 s⁻¹ and the kon [4] was 426000 M⁻¹ s⁻¹ and 431000 M⁻¹ s⁻¹.
